One data set addresses T1, Mtr4p-K700N (Saccharomyces cerevisiae, UniProt P47047 1-1073, K700N).
T1 sequence: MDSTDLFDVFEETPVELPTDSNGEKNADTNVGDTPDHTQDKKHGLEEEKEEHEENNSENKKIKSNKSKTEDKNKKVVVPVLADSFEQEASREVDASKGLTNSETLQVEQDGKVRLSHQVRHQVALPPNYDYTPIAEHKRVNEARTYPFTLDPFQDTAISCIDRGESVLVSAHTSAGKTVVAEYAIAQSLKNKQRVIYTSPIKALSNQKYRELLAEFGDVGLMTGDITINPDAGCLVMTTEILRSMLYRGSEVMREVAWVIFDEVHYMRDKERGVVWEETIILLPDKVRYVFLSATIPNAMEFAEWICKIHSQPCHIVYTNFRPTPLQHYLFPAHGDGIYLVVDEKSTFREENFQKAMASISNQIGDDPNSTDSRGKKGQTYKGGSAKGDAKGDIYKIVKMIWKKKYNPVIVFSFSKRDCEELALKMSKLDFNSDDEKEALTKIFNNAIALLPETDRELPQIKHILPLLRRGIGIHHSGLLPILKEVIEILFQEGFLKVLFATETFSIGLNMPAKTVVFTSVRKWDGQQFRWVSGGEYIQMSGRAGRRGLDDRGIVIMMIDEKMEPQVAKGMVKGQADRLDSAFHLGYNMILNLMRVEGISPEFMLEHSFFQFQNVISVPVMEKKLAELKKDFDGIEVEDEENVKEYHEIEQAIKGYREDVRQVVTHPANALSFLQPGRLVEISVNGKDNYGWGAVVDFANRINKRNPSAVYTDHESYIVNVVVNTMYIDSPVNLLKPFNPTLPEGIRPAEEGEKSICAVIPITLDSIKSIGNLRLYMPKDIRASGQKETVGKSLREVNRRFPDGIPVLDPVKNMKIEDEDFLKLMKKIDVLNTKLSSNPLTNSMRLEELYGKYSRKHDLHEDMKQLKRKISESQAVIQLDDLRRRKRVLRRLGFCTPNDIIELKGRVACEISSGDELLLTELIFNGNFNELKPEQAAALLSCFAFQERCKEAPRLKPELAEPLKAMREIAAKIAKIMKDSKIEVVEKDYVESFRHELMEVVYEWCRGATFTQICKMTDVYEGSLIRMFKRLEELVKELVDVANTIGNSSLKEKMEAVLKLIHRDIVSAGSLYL
Kind of data set: EMSA; no ATP or Mg2+ listed; 1 mM EDTA; EMSA: 0.5 nM RNA, 10 mM Tris pH 7.5, 1 mM EDTA, 100 mM KCl, 0.1 mM DTT, 5% glycerol, 1% NP40, on ice 30 min; 5% native PAGE at 4 C. The following applies: protein: recombinant; tags: His (His60 Ni purification); label: 5' 32P on R4 (top strand); 16 bp duplex, 3' overhang 6 nt on R1. In general terms: A gel shift assay detects complexes by their altered migration in electrophoresis.

The next data set has as its target T2, Mtr4p-P731S (Saccharomyces cerevisiae, UniProt P47047 1-1073, P731S).
T2 sequence: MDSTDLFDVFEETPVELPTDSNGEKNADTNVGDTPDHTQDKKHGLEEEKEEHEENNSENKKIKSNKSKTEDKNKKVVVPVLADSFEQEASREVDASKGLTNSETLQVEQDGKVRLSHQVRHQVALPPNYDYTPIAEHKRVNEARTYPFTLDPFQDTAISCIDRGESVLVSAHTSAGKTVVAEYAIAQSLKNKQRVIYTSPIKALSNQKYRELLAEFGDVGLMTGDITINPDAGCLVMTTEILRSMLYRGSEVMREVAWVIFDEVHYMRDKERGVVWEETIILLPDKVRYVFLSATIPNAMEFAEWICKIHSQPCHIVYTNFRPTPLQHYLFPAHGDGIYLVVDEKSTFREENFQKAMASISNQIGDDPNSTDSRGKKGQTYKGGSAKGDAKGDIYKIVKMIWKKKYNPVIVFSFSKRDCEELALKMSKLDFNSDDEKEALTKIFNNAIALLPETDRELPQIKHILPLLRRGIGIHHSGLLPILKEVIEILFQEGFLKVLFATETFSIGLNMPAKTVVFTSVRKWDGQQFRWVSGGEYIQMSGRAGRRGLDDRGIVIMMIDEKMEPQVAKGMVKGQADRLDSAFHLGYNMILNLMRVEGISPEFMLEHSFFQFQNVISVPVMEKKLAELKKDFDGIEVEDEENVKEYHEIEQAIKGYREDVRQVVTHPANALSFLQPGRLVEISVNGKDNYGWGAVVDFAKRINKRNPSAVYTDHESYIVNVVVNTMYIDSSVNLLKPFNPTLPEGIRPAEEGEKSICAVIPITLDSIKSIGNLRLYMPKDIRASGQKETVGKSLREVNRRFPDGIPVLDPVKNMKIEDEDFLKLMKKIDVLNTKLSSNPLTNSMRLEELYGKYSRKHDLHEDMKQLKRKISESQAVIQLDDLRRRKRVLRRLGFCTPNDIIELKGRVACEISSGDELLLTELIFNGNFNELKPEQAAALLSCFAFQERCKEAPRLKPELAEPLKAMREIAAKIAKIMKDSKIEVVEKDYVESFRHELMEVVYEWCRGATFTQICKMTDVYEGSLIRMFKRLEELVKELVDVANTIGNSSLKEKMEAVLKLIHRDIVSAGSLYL
The data set is described as above. The following applies: protein: recombinant; tags: His (His60 Ni purification); label: 5' 32P on R4 (top strand); 16 bp duplex, 3' overhang 6 nt on R1.

The text below walks through data of publication PMC4731217, “Mutations in Mtr4 Structural Domains Reveal Their Important Role in Regulating tRNAiMet Turnover in Saccharomyces cerevisiae and Mtr4p Enzymatic Activities In Vitro”.

B1: R1-4 RNA duplex (R4 top / R1 bottom) (dsRNA)
RNA 1: AGCACCGUAAAGACGC
RNA 2: GCGUCUUUACGGUGCUAGCUUA
Turning to B1, the values for the binding signal with Mtr4p-K700N and with Mtr4p-P731S were < 50 % of wild-type complex and ~50 % of wild-type complex, respectively.
